*1 amine or outer side, *2 acyl side, *3 side chain or, on linkers, in order; H or OH if unused. Where no end group is shown, it is not given here. Side-chain parts run from the residue outwards. [ ]: non-standard residue; d: D form. The star is where a group is joined. d(γGlu) = O=C(O)[C@@H](CCC(=O)[*:2])N[*:1]; γGlu = O=C(O)[C@H](CCC(=O)[*:2])N[*:1]; Stearoyl = CCCCCCCCCCCCCCCCCC(=O)*; Palmitoyl = CCCCCCCCCCCCCCCC(=O)*; Myristoyl = CCCCCCCCCCCCCC(=O)*; Aib = CC(C)(N)C(=O)O
Columns and labels:
human GLP-1 receptor = human GLP-1 receptor (human, UniProt P43220 24-463); test: cell-based or functional assay
human glucagon receptor = human glucagon receptor (human, UniProt P47871 26-477); test: cell-based or functional assay
Sequence of human glucagon receptor (P47871 26-477): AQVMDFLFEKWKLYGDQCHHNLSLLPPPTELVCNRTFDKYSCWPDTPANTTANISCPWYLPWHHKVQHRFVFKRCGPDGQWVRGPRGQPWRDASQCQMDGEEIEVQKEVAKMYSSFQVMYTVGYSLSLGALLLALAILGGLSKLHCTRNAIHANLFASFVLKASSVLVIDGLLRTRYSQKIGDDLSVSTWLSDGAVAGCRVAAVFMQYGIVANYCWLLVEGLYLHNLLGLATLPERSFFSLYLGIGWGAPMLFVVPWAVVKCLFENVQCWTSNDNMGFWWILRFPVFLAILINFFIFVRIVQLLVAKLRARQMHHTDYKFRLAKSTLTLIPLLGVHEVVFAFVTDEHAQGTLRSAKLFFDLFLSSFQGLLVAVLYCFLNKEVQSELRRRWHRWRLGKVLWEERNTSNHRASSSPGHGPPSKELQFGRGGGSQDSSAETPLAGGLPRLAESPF

## H[dS]QGTFTSDK([homocysteic acid-homocysteic acid-Palmitoyl])SKYLDERRAQDFVQWLMNTK[γGlu]-NH2 [MM116]
Human GLP-1 receptor
  hGLP-1R EC50: 0.132 nM
Human glucagon receptor
  hGCGR EC50: 0.85 nM

B1: MM127 (peptide)
peptide: H[dS]QGTFTSDK([γGlu-γGlu-Palmitoyl])SKYLD[Aib]RAAQDFVQWLMDTK[γGlu]-NH2
modifications: N-terminus assumed
SMILES: CCCCCCCCCCCCCCCC(=O)N[C@@H](CCC(=O)N[C@@H](CCC(=O)NCCCC[C@H](NC(=O)[C@H](CC(=O)O)NC(=O)[C@H](CO)NC(=O)[C@@H](NC(=O)[C@H](Cc1ccccc1)NC(=O)[C@@H](NC(=O)CNC(=O)[C@H](CCC(N)=O)NC(=O)[C@@H](CO)NC(=O)[C@@H](N)Cc1c[nH]cn1)[C@@H](C)O)[C@@H](C)O)C(=O)N[C@@H](CO)C(=O)N[C@@H](CCCCN)C(=O)N[C@@H](Cc1ccc(O)cc1)C(=O)N[C@@H](CC(C)C)C(=O)N[C@@H](CC(=O)O)C(=O)NC(C)(C)C(=O)N[C@@H](CCCNC(=N)N)C(=O)N[C@@H](C)C(=O)N[C@@H](C)C(=O)N[C@@H](CCC(N)=O)C(=O)N[C@@H](CC(=O)O)C(=O)N[C@@H](Cc1ccccc1)C(=O)N[C@H](C(=O)N[C@@H](CCC(N)=O)C(=O)N[C@@H](Cc1c[nH]c2ccccc12)C(=O)N[C@@H](CC(C)C)C(=O)N[C@@H](CCSC)C(=O)N[C@@H](CC(=O)O)C(=O)N[C@H](C(=O)N[C@@H](CCCCN)C(=O)N[C@@H](CCC(N)=O)C(=O)O)[C@@H](C)O)C(C)C)C(=O)O)C(=O)O
Human GLP-1 receptor
  hGLP-1R EC50: 0.004 nM
Human glucagon receptor
  hGCGR EC50: 0.004 nM

B2: MM121 (peptide)
peptide: H[dS]QGTFTSDK([γGlu-γGlu-Myristoyl])SKYLD[Aib]RRAQDFVQWLMNTK[γGlu]-NH2
modifications: N-terminus assumed
SMILES: CCCCCCCCCCCCCC(=O)N[C@@H](CCC(=O)N[C@@H](CCC(=O)NCCCC[C@H](NC(=O)[C@H](CC(=O)O)NC(=O)[C@H](CO)NC(=O)[C@@H](NC(=O)[C@H](Cc1ccccc1)NC(=O)[C@@H](NC(=O)CNC(=O)[C@H](CCC(N)=O)NC(=O)[C@@H](CO)NC(=O)[C@@H](N)Cc1c[nH]cn1)[C@@H](C)O)[C@@H](C)O)C(=O)N[C@@H](CO)C(=O)N[C@@H](CCCCN)C(=O)N[C@@H](Cc1ccc(O)cc1)C(=O)N[C@@H](CC(C)C)C(=O)N[C@@H](CC(=O)O)C(=O)NC(C)(C)C(=O)N[C@@H](CCCNC(=N)N)C(=O)N[C@@H](CCCNC(=N)N)C(=O)N[C@@H](C)C(=O)N[C@@H](CCC(N)=O)C(=O)N[C@@H](CC(=O)O)C(=O)N[C@@H](Cc1ccccc1)C(=O)N[C@H](C(=O)N[C@@H](CCC(N)=O)C(=O)N[C@@H](Cc1c[nH]c2ccccc12)C(=O)N[C@@H](CC(C)C)C(=O)N[C@@H](CCSC)C(=O)N[C@@H](CC(N)=O)C(=O)N[C@H](C(=O)N[C@@H](CCCCN)C(=O)N[C@@H](CCC(N)=O)C(=O)O)[C@@H](C)O)C(C)C)C(=O)O)C(=O)O
Human GLP-1 receptor
  hGLP-1R EC50: 0.131 nM
Human glucagon receptor
  hGCGR EC50: 0.006 nM

B3: MM132 (peptide)
peptide: H[dS]QGTFTSDK([γGlu-γGlu-Stearoyl])SKYLD[Aib]RRAQDFVQWLMNTK[γGlu]-NH2
modifications: N-terminus assumed
SMILES: CCCCCCCCCCCCCCCCCC(=O)N[C@@H](CCC(=O)N[C@@H](CCC(=O)NCCCC[C@H](NC(=O)[C@H](CC(=O)O)NC(=O)[C@H](CO)NC(=O)[C@@H](NC(=O)[C@H](Cc1ccccc1)NC(=O)[C@@H](NC(=O)CNC(=O)[C@H](CCC(N)=O)NC(=O)[C@@H](CO)NC(=O)[C@@H](N)Cc1c[nH]cn1)[C@@H](C)O)[C@@H](C)O)C(=O)N[C@@H](CO)C(=O)N[C@@H](CCCCN)C(=O)N[C@@H](Cc1ccc(O)cc1)C(=O)N[C@@H](CC(C)C)C(=O)N[C@@H](CC(=O)O)C(=O)NC(C)(C)C(=O)N[C@@H](CCCNC(=N)N)C(=O)N[C@@H](CCCNC(=N)N)C(=O)N[C@@H](C)C(=O)N[C@@H](CCC(N)=O)C(=O)N[C@@H](CC(=O)O)C(=O)N[C@@H](Cc1ccccc1)C(=O)N[C@H](C(=O)N[C@@H](CCC(N)=O)C(=O)N[C@@H](Cc1c[nH]c2ccccc12)C(=O)N[C@@H](CC(C)C)C(=O)N[C@@H](CCSC)C(=O)N[C@@H](CC(N)=O)C(=O)N[C@H](C(=O)N[C@@H](CCCCN)C(=O)N[C@@H](CCC(N)=O)C(=O)O)[C@@H](C)O)C(C)C)C(=O)O)C(=O)O
Human GLP-1 receptor
  hGLP-1R EC50: 0.024 nM
Human glucagon receptor
  hGCGR EC50: 0.004 nM

B4: MM115 (peptide)
peptide: H[dS]QGTFTSDK([Arg-Arg-Palmitoyl])SKYLDERRAQDFVQWLMNTK[γGlu]-NH2
modifications: N-terminus assumed
SMILES: CCCCCCCCCCCCCCCC(=O)N[C@@H](CCCNC(=N)N)C(=O)N[C@@H](CCCNC(=N)N)C(=O)NCCCC[C@H](NC(=O)[C@H](CC(=O)O)NC(=O)[C@H](CO)NC(=O)[C@@H](NC(=O)[C@H](Cc1ccccc1)NC(=O)[C@@H](NC(=O)CNC(=O)[C@H](CCC(N)=O)NC(=O)[C@@H](CO)NC(=O)[C@@H](N)Cc1c[nH]cn1)[C@@H](C)O)[C@@H](C)O)C(=O)N[C@@H](CO)C(=O)N[C@@H](CCCCN)C(=O)N[C@@H](Cc1ccc(O)cc1)C(=O)N[C@@H](CC(C)C)C(=O)N[C@@H](CC(=O)O)C(=O)N[C@@H](CCC(=O)O)C(=O)N[C@@H](CCCNC(=N)N)C(=O)N[C@@H](CCCNC(=N)N)C(=O)N[C@@H](C)C(=O)N[C@@H](CCC(N)=O)C(=O)N[C@@H](CC(=O)O)C(=O)N[C@@H](Cc1ccccc1)C(=O)N[C@H](C(=O)N[C@@H](CCC(N)=O)C(=O)N[C@@H](Cc1c[nH]c2ccccc12)C(=O)N[C@@H](CC(C)C)C(=O)N[C@@H](CCSC)C(=O)N[C@@H](CC(N)=O)C(=O)N[C@H](C(=O)N[C@@H](CCCCN)C(=O)N[C@@H](CCC(N)=O)C(=O)O)[C@@H](C)O)C(C)C
Human GLP-1 receptor
  hGLP-1R EC50: 1.08 nM
Human glucagon receptor
  hGCGR EC50: 1.31 nM

B5: MM113 (peptide)
peptide: H[dS]QGTFTSDK([γGlu-γGlu-Palmitoyl])SKYLD[Aib]RRAQDFVQWLMNTE[d(γGlu)]-NH2
modifications: N-terminus assumed
SMILES: CCCCCCCCCCCCCCCC(=O)N[C@@H](CCC(=O)N[C@@H](CCC(=O)NCCCC[C@H](NC(=O)[C@H](CC(=O)O)NC(=O)[C@H](CO)NC(=O)[C@@H](NC(=O)[C@H](Cc1ccccc1)NC(=O)[C@@H](NC(=O)CNC(=O)[C@H](CCC(N)=O)NC(=O)[C@@H](CO)NC(=O)[C@@H](N)Cc1c[nH]cn1)[C@@H](C)O)[C@@H](C)O)C(=O)N[C@@H](CO)C(=O)N[C@@H](CCCCN)C(=O)N[C@@H](Cc1ccc(O)cc1)C(=O)N[C@@H](CC(C)C)C(=O)N[C@@H](CC(=O)O)C(=O)NC(C)(C)C(=O)N[C@@H](CCCNC(=N)N)C(=O)N[C@@H](CCCNC(=N)N)C(=O)N[C@@H](C)C(=O)N[C@@H](CCC(N)=O)C(=O)N[C@@H](CC(=O)O)C(=O)N[C@@H](Cc1ccccc1)C(=O)N[C@H](C(=O)N[C@@H](CCC(N)=O)C(=O)N[C@@H](Cc1c[nH]c2ccccc12)C(=O)N[C@@H](CC(C)C)C(=O)N[C@@H](CCSC)C(=O)N[C@@H](CC(N)=O)C(=O)N[C@H](C(=O)N[C@@H](CCC(=O)O)C(=O)N[C@H](CCC(N)=O)C(=O)O)[C@@H](C)O)C(C)C)C(=O)O)C(=O)O
Human GLP-1 receptor
  hGLP-1R EC50: 0.023 nM
Human glucagon receptor
  hGCGR EC50: 0.006 nM

## H[dS]QGTFTSDK([dE-dE-Palmitoyl])SKYLDERRAQDFVQWLMNTK[γGlu]-NH2 [MM117]
Human GLP-1 receptor
  hGLP-1R EC50: 0.93 nM
Human glucagon receptor
  hGCGR EC50: 0.25 nM

From patent US20120165503A1 (Merck Sharp & Dohme, published 2012)
